Results as given in paper PMC2920134 (The Journal of neuroscience : the official journal of the …, 2010).
Where two headings read alike, the source gives them in different places. Each block holds one binder with its values, some of them ahead of it.

Assays:
Test in all cases: pull-down
[1] = target: T1, His6-tagged NSF (AA 1-744) (mouse, UniProt P46460 1-744)
His6-tagged Arr1 = His6-tagged Arr1 (mouse, UniProt P20443 1-403)
[2] = target: His6-tagged NSF truncated segment (AA 197-744) (mouse, UniProt P46460 197-744)
[3] = target: T1, His6-tagged NSF (AA 1-744); remark: listed apart in the source

His6-tagged NSF truncated segment (AA 197-744), sequence (P46460 197-744): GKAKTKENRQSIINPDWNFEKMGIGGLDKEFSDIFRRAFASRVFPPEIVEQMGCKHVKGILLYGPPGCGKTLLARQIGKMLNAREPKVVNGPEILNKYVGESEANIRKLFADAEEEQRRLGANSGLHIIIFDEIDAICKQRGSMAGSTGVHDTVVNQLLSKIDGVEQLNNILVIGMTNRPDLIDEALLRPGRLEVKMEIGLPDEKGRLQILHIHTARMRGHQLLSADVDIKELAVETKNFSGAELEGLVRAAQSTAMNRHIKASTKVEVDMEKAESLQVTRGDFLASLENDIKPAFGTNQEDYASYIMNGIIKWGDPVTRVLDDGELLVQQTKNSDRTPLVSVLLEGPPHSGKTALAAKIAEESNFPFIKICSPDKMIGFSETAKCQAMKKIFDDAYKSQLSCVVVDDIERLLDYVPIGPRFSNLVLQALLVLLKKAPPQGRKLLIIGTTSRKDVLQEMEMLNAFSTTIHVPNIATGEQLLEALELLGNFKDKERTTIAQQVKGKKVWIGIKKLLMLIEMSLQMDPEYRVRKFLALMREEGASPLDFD

B1: GST-tagged truncated Arr1 [AA 1-370] (domain or fragment, mouse, UniProt P20443 1-370, looked up)
chain: MAACGKTNKSHVIFKKVSRDKSVTIYLGKRDYVDHVSQVEPVDGVVLVDPELVKGKKVYVTLTCAFRYGQEDIDVMGLTFRRDLYFSRVQVYPPVGAMSVLTQLQESLLKKLGDNTYPFLLTFPDYLPCSVMLQPAPQDVGKSCGVDFEVKAFASDITDPEEDKIPKKSSVRLLIRKVQHAPPEMGPQPSAEASWQFFMSDKPLNLSVSLSKEIYFHGEPIPVTVTVTNNTDKVVKKIKVSVEQIANVVLYSSDYYVKPVASEETQEKVQPNSTLTKTLVLVPLLANNRERRGIALDGKIKHEDTNLASSTIIKEGIDRTVMGILVSYHIKVKLTVSGFLGELTSSEVATEVPFRLMHPQPEDPAKESVQ
binding result [1]: binds

B4: GST-tagged truncated Arr1 [AA 1-191] (domain or fragment, mouse, UniProt P20443 1-191, looked up)
chain: MAACGKTNKSHVIFKKVSRDKSVTIYLGKRDYVDHVSQVEPVDGVVLVDPELVKGKKVYVTLTCAFRYGQEDIDVMGLTFRRDLYFSRVQVYPPVGAMSVLTQLQESLLKKLGDNTYPFLLTFPDYLPCSVMLQPAPQDVGKSCGVDFEVKAFASDITDPEEDKIPKKSSVRLLIRKVQHAPPEMGPQPSA
binding result [1]: binds

Further lines, results first:

binding result (His6-tagged Arr1): binds
B2: GST-tagged NSF (AA 1-250) (domain or fragment, mouse, UniProt P46460 1-250, looked up)
chain: MAGRTMQAARCPTDELSLSNCAVVNEKDFQSGQHVMVRTSPNHKYIFTLRTHPSVVPGCIAFSLPQRKWAGLSIGQDIEVALYSFDKAKQCIGTMTIEIDFLQKKNIDSNPYDTDKMAAEFIQQFNNQAFSVGQQLVFSFNDKLFGLLVKDIEAMDPSILKGEPASGKRQKIEVGLVVGNSQVAFEKAENSSLNLIGKAKTKENRQSIINPDWNFEKMGIGGLDKEFSDIFRRAFASRVFPPEIVEQMGC

binding result [2]: binds
binding result [3]: binds
B3: GST-tagged Arr1 [AA 1-403] (natural protein, mouse, UniProt P20443 1-403, looked up)
chain: MAACGKTNKSHVIFKKVSRDKSVTIYLGKRDYVDHVSQVEPVDGVVLVDPELVKGKKVYVTLTCAFRYGQEDIDVMGLTFRRDLYFSRVQVYPPVGAMSVLTQLQESLLKKLGDNTYPFLLTFPDYLPCSVMLQPAPQDVGKSCGVDFEVKAFASDITDPEEDKIPKKSSVRLLIRKVQHAPPEMGPQPSAEASWQFFMSDKPLNLSVSLSKEIYFHGEPIPVTVTVTNNTDKVVKKIKVSVEQIANVVLYSSDYYVKPVASEETQEKVQPNSTLTKTLVLVPLLANNRERRGIALDGKIKHEDTNLASSTIIKEGIDRTVMGILVSYHIKVKLTVSGFLGELTSSEVATEVPFRLMHPQPEDPAKESVQDENLVFEEFARQNLKDTGENTEGKKDEDAGQDE
